Values joined by “and” are separate entries in the source; they are usually repeats but may differ in a detail not shown here. Equal entries are not always repeated.
Key:
[1] = molecular target: multimeric recombinant RBD protein (SARS-CoV-2 S protein residues 331-589 linked to the trimerization region of bacteriophage T4 and six histidines) (SARS-CoV-2 (Wuhan strain) | bacteriophage T4) (UniProt P0DTC2); assay: cross-linking
[2] = molecular target: multimeric recombinant RBD protein (SARS-CoV-2 S protein residues 331-589 linked to the trimerization region of bacteriophage T4 and six histidines) (SARS-CoV-2 (Wuhan strain) | bacteriophage T4) (UniProt P0DTC2); assay: SEC; Superdex 200 column (30 x 1 cm) in TBS, 0.4 mL/min; calibrated with BSA (66 and 132 kDa), carbonic anhydrase (30 kDa) and beta-amylase (200 kDa); 135 kDa fractions pooled and re-applied

**Q.** Which stoichiometry N [1] does the source give for “multimeric recombinant RBD protein (SARS-CoV-2 S protein residues 331-589 linked to the trimerization region of bacteriophage T4 and six histidines) (from UniProt P0DTC2 331-589)” here?
**A.** 3 and 6

**Q.** And the stoichiometry N [2]?
**A.** 3

From PMC11273545
